Data as given in the supplement of paper PMC9112550, “Optimization of the antimicrobial peptide Bac7 by deep mutational scanning” (BMC Biology, 2022).

Test system: Escherichia coli TOP10
Assay: shrunken log2 fold change of peptide-encoding DNA abundance (4.5 h post-induction vs induction); higher = less antimicrobial activity (less host growth inhibition)
Settings: time post-induction: 4.5 h; library: site-saturation at positions 5, 18, 19, 20
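Note: peptides expressed intracellularly from a pBAD plasmid library in pooled LB shake-flask culture, induced with 0.3% L-arabinose, DNA abundance read by NGS, three biological replicates, DESeq2 with apeglm shrinkage.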

Row | Sequence | shrunken log2 fold change
1 | RRIRQRPPRLPRPRPRPLKSPRP | 0.138
2 | RRIRGRPPRLPRPRPRPHEPPRP | 1.15
3 | RRIRMRPPRLPRPRPRPYCWPRP | -0.134
4 | RRIRVRPPRLPRPRPRPKMAPRP | -0.222
5 | RRIRMRPPRLPRPRPRPSYIPRP | -0.275
6 | RRIRPRPPRLPRPRPRPYKIPRP | -0.227
7 | RRIRMRPPRLPRPRPRPLCFPRP | 0.562
8 | RRIRQRPPRLPRPRPRPLQIPRP | 0.223
9 | RRIRLRPPRLPRPRPRPGDTPRP | -0.238
10 | RRIRVRPPRLPRPRPRPGTIPRP | -0.0277
11 | RRIRMRPPRLPRPRPRPKMGPRP | -0.00235
12 | RRIRSRPPRLPRPRPRPAMKPRP | 0.00274
13 | RRIRSRPPRLPRPRPRPWEPPRP | -0.029
14 | RRIRYRPPRLPRPRPRPFAIPRP | -0.158
15 | RRIRFRPPRLPRPRPRPCVEPRP | -0.267
16 | RRIRRRPPRLPRPRPRPGMPPRP | 0.463
17 | RRIRARPPRLPRPRPRPYDVPRP | -0.0868
18 | RRIRMRPPRLPRPRPRPFFSPRP | 0.195
19 | RRIRERPPRLPRPRPRPSCNPRP | -0.0433
20 | RRIRHRPPRLPRPRPRPRAYPRP | -0.411
21 | RRIRQRPPRLPRPRPRPTFMPRP | -0.552
22 | RRIRMRPPRLPRPRPRPWFVPRP | -0.283
23 | RRIRDRPPRLPRPRPRPNCIPRP | -0.00269

Row | Sequence | shrunken log2 fold change
24 | RRIRFRPPRLPRPRPRPHALPRP | -0.222
25 | RRIRSRPPRLPRPRPRPALTPRP | 0.369
26 | RRIRQRPPRLPRPRPRPHCPPRP | -0.0268
27 | RRIRIRPPRLPRPRPRPLGHPRP | -0.425
28 | RRIRRRPPRLPRPRPRPLHLPRP | -0.318
29 | RRIRERPPRLPRPRPRPFFSPRP | -0.358
30 | RRIRSRPPRLPRPRPRPAHKPRP | -0.152
31 | RRIRDRPPRLPRPRPRPYMNPRP | -0.665
32 | RRIRFRPPRLPRPRPRPVDHPRP | -0.179
33 | RRIRCRPPRLPRPRPRPKDLPRP | -0.46
34 | RRIRTRPPRLPRPRPRPCQHPRP | 0.0626
35 | RRIRYRPPRLPRPRPRPLLPPRP | -0.266
36 | RRIRIRPPRLPRPRPRPAVLPRP | 0.0102
37 | RRIRNRPPRLPRPRPRPKPKPRP | 0.211
38 | RRIRKRPPRLPRPRPRPTTMPRP | 0.171
39 | RRIRPRPPRLPRPRPRPRHIPRP | -0.0802
40 | RRIRARPPRLPRPRPRPFQLPRP | -0.94
41 | RRIRRRPPRLPRPRPRPMVQPRP | -0.00615
42 | RRIRKRPPRLPRPRPRPPRCPRP | 0.578
43 | RRIRRRPPRLPRPRPRPGMCPRP | 0.269
44 | RRIRKRPPRLPRPRPRPMTFPRP | -0.00803
45 | RRIRKRPPRLPRPRPRPRRPPRP | 0.544
46 | RRIRLRPPRLPRPRPRPIPGPRP | 0.00419

Row | Sequence | shrunken log2 fold change
47 | RRIRGRPPRLPRPRPRPYRNPRP | -0.39
48 | RRIRCRPPRLPRPRPRPLTYPRP | -0.19
49 | RRIRCRPPRLPRPRPRPTGDPRP | 0.231
50 | RRIRWRPPRLPRPRPRPMVWPRP | 0.025
51 | RRIRRRPPRLPRPRPRPEQQPRP | 0.22
52 | RRIRFRPPRLPRPRPRPCFHPRP | -0.894
53 | RRIRYRPPRLPRPRPRPRWRPRP | 0.585
54 | RRIRDRPPRLPRPRPRPFICPRP | -0.0606
55 | RRIRFRPPRLPRPRPRPGCPPRP | 0.00835
56 | RRIRHRPPRLPRPRPRPCNSPRP | -0.0938
57 | RRIRMRPPRLPRPRPRPNTWPRP | 0.454
58 | RRIRVRPPRLPRPRPRPKRIPRP | -0.114
59 | RRIRARPPRLPRPRPRPCMIPRP | -0.261
60 | RRIRERPPRLPRPRPRPKNGPRP | -0.0133
61 | RRIRYRPPRLPRPRPRPIRLPRP | 0.0224
62 | RRIRNRPPRLPRPRPRPVELPRP | -0.0081
63 | RRIRPRPPRLPRPRPRPINYPRP | -0.402
64 | RRIRVRPPRLPRPRPRPSITPRP | -0.504
65 | RRIRPRPPRLPRPRPRPRRGPRP | 0.46
66 | RRIRSRPPRLPRPRPRPACHPRP | -0.0735
67 | RRIRRRPPRLPRPRPRPHLPPRP | 0.141
68 | RRIRNRPPRLPRPRPRPAQMPRP | 0.177
69 | RRIRNRPPRLPRPRPRPYWEPRP | -0.293

Row | Sequence | shrunken log2 fold change
70 | RRIRIRPPRLPRPRPRPHHCPRP | -0.00699
71 | RRIRHRPPRLPRPRPRPNFWPRP | 0.257
72 | RRIRPRPPRLPRPRPRPQFFPRP | -0.0064
73 | RRIRVRPPRLPRPRPRPEENPRP | 0.265
74 | RRIRERPPRLPRPRPRPIKRPRP | -0.171
75 | RRIRNRPPRLPRPRPRPLLAPRP | 0.253
76 | RRIRKRPPRLPRPRPRPHEDPRP | 0.139
77 | RRIRNRPPRLPRPRPRPEWRPRP | 0.404
78 | RRIRARPPRLPRPRPRPHSKPRP | -0.154
79 | RRIRQRPPRLPRPRPRPHMCPRP | -0.0238
80 | RRIRSRPPRLPRPRPRPMQFPRP | 0.0683
81 | RRIRARPPRLPRPRPRPHTAPRP | 0.172
82 | RRIRVRPPRLPRPRPRPYHSPRP | -1.02
83 | RRIRHRPPRLPRPRPRPIQYPRP | -0.122
84 | RRIRERPPRLPRPRPRPHMKPRP | -0.286
85 | RRIRARPPRLPRPRPRPKNHPRP | -0.125
86 | RRIRKRPPRLPRPRPRPRKKPRP | 0.381
87 | RRIRHRPPRLPRPRPRPLKCPRP | -0.024
88 | RRIRKRPPRLPRPRPRPNWFPRP | 0.188
89 | RRIRVRPPRLPRPRPRPEPHPRP | -0.0157
90 | RRIRARPPRLPRPRPRPIMWPRP | 0.217
91 | RRIRIRPPRLPRPRPRPYVDPRP | -0.0276
